Experiments:
[1] = molecular target: Escherichia coli dUTPase Q93H mutant (Escherichia coli)
[2] = molecular target: Escherichia coli dUTPase Q93R mutant (Escherichia coli)
[3] = molecular target: Escherichia coli dUTPase Q93H mutant (Escherichia coli); test: steady-state enzyme inhibition; 50 nM dUTPase, 0-400 nM Stl, 5 min pre-incubation at 20 °C, 30 µM dUTP; 1 mM HEPES, 150 mM KCl, 5 mM MgCl2, 40 µM phenol red, pH 7.5; quadratic equation fitted, K is the Ki (IC50)
[4] = molecular target: Escherichia coli dUTPase Q93R mutant (Escherichia coli); test: as above
[5] = molecular target: Escherichia coli dUTPase Q93H mutant (Escherichia coli); test: crystal structure; EcDUT^Q93H with 5 mM dUPNPP; hanging drop, 0.1 M TRIS, 18-33.75 % PEG 3350, 400 mM NaAc, pH 7.5, 295 K

| stoichiometry N [5] | Substance | decrease of the steady-state velocity of dUTPase on Stl addition [1] | decrease of the steady-state velocity of dUTPase on Stl addition [2] | Ki [3] | Ki [4] |
| --- | --- | --- | --- | --- | --- |
|  | Stl_(SaPIbov1) protein (staphylococcal repressor) (natural protein) | 58% | 47% | 4.83 nM | 5.9 nM |
| 3 | Escherichia coli dUTPase Q93H mutant (enzyme) |  |  |  |  |

Source: publication PMC6627510, “The Role of a Key Amino Acid Position in Species-Specific Proteinaceous dUTPase Inhibition” (Biomolecules, 2019)
